According to patent publication JP2010500380A:

Biological target: 白血球IFN (leukocyte IFN, Sigma I-2396)
Assay: cell-based or functional assay

percent block of bioactivity, RG bioassay, 600 pg leukocyte IFN: > 50%
B1: ACO-1 (antibody, V domains shown)
VH: QVQLQQPGAELVKPGASVKLSCKASGYTFTNYWMHWVKQRPGQGLEWIGEINPSHGRTIYNENFKSKATLTVDKSSITAFMQLSSLTSEDSAVYFCARGGLGPAWFAYWGQGTLVTVSA
VL: QIVLTQSPAIMSASPGEKVTLTCSAGSSVDSSYLYWYQQKPGSSPKLWIYSTSNLASGVPARFSGSGSGTSYSLTISSMEAEDAASYFCHQWSSYPFTFGSGTKLEIKR
